The source of these data is patent publication US20090252683A1 (Amgen, published 2009).

Experiment [1] concerns the target T1, cynomolgus EpCAM antigen on transfected CHO cells (cynomolgus, UniProt Q1WER1 24-265 (rhesus entry)).
T1 construct: 48 holds the extracellular portion
T1 sequence: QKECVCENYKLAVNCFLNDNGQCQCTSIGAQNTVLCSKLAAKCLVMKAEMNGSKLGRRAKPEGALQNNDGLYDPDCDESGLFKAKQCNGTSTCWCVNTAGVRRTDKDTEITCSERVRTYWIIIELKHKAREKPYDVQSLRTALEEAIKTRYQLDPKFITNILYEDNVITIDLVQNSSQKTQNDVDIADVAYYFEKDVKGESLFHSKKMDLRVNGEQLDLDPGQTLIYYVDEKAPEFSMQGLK
The experiment can be described thus: FACS, cynomolgus EpCAM transfected CHO cells (FIG. 8B), anti-His detection. From the text: (§1) FIG. 8: FACS assay for binding of 2G8LH×SEQ ID NO. 12, 2G8LH×SEQ ID NO. 10, 2G8LH×SEQ ID NO. 16, 2G8LH×SEQ ID NO. 14, 2G8HL×SEQ ID NO. 12, 2G8HL×SEQ ID NO. 10, 2G8HL×SEQ ID NO. 16 and 2G8HL×SEQ ID NO. 14 on Kato III (FIG. 8A) cells or cynomolgus EpCAM transfected CHO cells (FIG. 8B) and HPB-ALL cells. Antigen binding was clearly detectable for the anti EpCAM specificities as well as for the anti CD3 specificities. As a negative control for binding to cynomolgus EpCAM, the 5-10LH×SEQ ID NO.
(§2) Binding of the bifunctional constructs from cell culture supernatants or binding of purified bifunctional constructs to the human EpCAM antigen on Kato III cells or cynomolgus EpCAM transfected CHO cells and to the CD3 antigen on HPB-ALL cells was tested using an FACS assay. For that purpose 2.5×10⁵ cells were incubated with 50 μl supernatant or with 5 μg/ml of the purified constructs in 50 μl PBS with 2% FCS. The binding of the constructs was detected with an anti-His antibody (Penta-His Antibody, BSA free, obtained from Qiagen GmbH, Hilden, FRG) at 2 μg/ml in 50 μl PBS with 2% FCS. […] The samples were measured on a FACSscan (BD biosciences, Heidelberg, FRG). Antigen binding was clearly detectable for the anti EpCAM specificities as well as for the anti CD3 specificities (see FIG. 8). As a negative control for binding to cynomolgus EpCAM, the 5-10LH×SEQ ID NO. […] The 5-10LH part only binds to human EpCAM.

In experiment [2] the target is T2, human EpCAM antigen on Kato III cells or human EpCAM transfected CHO cells (human, UniProt P16422 24-265).
T2 construct: 137 holds only the extracellular portion; the protein stood whole on cells
T2 sequence: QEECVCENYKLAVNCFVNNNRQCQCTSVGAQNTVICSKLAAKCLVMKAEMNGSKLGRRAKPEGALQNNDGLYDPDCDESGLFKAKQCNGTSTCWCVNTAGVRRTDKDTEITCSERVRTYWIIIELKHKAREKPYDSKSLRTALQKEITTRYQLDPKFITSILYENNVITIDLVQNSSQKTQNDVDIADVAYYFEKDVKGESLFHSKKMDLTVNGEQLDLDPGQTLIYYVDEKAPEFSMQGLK
The experiment is described as follows: FACS, Kato III cells (FIG. 8A), anti-His detection.
Source text: as §1, §2

The target in experiment [3] is T3, human EGFR on A431 cells (human, UniProt P00533 25-1210).
T3 construct: whole, on cells
The experiment is described as follows: FACS, A431 cells, 1 µg/ml purified protein, anti-His detection. How it is done:
In order to test the functionality of the cross-species specific bispecific antibody constructs with regard to binding capability to human and cynomolgus EGFR and CD3, respectively, a FACS analysis was performed. For this purpose the EGFR positive epidermoid carcinoma A431 cells (ATCC, CRL-1555) and CD3 positive human T cell leukemia cell line HPB-ALL (DSMZ, Braunschweig, ACC483) were used to check the binding to human antigens. The binding reactivity to cynomolgus antigens was tested by using the generated cynomolgus EGFR transfectants described in Example 20 and cynomolgus PBMCs which were obtained by Ficoll density gradient centrifugation. 200,000 cells of the respective cell population were incubated for 30 min on ice with 50 μl of the purified protein of the cross-species specific bispecific antibody constructs (1 μg/ml). The cells were washed twice in PBS and binding of the construct was detected with an unlabeled murine Penta His antibody (diluted 1:20 in 50 μl PBS with 2% FCS; Qiagen; Order No. 34660). After washing, bound anti His antibodies were detected with an Fc gamma-specific antibody (Dianova) conjugated to phycoerythrin, diluted 1:100 in 50 μl PBS with 2% FCS. Fresh culture medium was used as a negative control.
Cells were analyzed by flow cytometry on a FACS-Calibur apparatus (Becton Dickinson, Heidelberg). FACS staining and measuring of the fluorescence intensity were performed as described in Current Protocols in Immunology (Coligan, Kruisbeek, Margulies, Shevach and Strober, Wiley-Interscience, 2002).

B1: 2G8LH×SEQ ID NO. 14 bispecific single chain antibody (bispecific antibody)
chain: DVVMTQTPLTLSVTIGQPASISCKSSQSLLYSNGKTYLNWILQRPGQSPKRLIYLVSKLDSGVPDRFTGSGSGTDFTLKISRVEAEDLGVYYCVQGTHFPLTFGAGTKLELKGGGGSGGGGSGGGGSEVQLQQSGAELVRSGASVKLSCTASGFNIKDYYLHWVKQRPEQGLEWIAWIDLENGDIKYAPKFQGKATITADTSSNTAYLQLSSLTSEDTAVYYCNPYYYGSNYDYAMDYWGQGTSVTVSSGGGGSQVQLQQSGAELARPGASVKMSCKASGYTFTRSTMHWVKQRPGQGLEWIGYINPSSAYTNYNQKFKDKATLTADKSSSTAYMQLSSLTSEDSAVYYCASPQVHYDYNGFPYWGQGTLVTVSAGGGGSGGGGSGGGGSQVVLTQSPAIMSAFPGEKVTMTCSASSSVSYMNWYQQKSGTSPKRWIYDSSKLASGVPARFSGSGSGTSYSLTISSMETEDAATYYCQQWSRNPPTFGGGTKLQITHHHHHH
For the molecule B1, the binding result in experiment [1] and in experiment [2] was “binds” throughout.

B2: SEQ ID NO. 170 × EGFR LH (bispecific antibody)
chain: EVQLVESGGGLVQPGGSLKLSCAASGFTFNTYAMNWVRQAPGKGLEWVARIRSKYNNYATYYADSVKDRFTISRDDSKNTAYLQMNNLKTEDTAVYYCVRHGNFGNSYVSWFAYWGQGTLVTVSSGGGGSGGGGSGGGGSQTVVTQEPSLTVSPGGTVTLTCRSSTGAVTTSNYANWVQQKPGQAPRGLIGGTNKRAPGTPARFSGSLLGGKAALTLSGVQPEDEAEYYCALWYSNLWVFGGGTKLTVLSGGGGSDIVLTQSPASLPVSLGQRATISCRASQSVSSSTYSYIHWYQQKPGQPPKLLITYASNLESGVPARFSGSGSGTDFTLDIHPVEEDDSSTYYCQHSWEIPFTFGSGTKLEIKGGGGSGGGGSGGGGSQVQLQQSGPDLVKPGASVKMSCKASGHTFTDCVIIWVKQRAGQGLEWIGQIYPGTGRSYYNEIFKGKATLTADKSSNTVHIQLSSLTSEDSAVYFCALSTLIHGTWFSYWGQGTLVTVSSHHHHHH
notes: 184 as EGFR LH; the appendix heads it EGFR HL; ends with HHHHHH and *VD in the appendix
As for B2, in experiment [3], the binding result was “binds”.

B3: SEQ ID NO. 170 × EGFR HL (bispecific antibody)
chain: EVQLVESGGGLVQPGGSLKLSCAASGFTFNTYAMNWVRQAPGKGLEWVARIRSKYNNYATYYADSVKDRFTISRDDSKNTAYLQMNNLKTEDTAVYYCVRHGNFGNSYVSWFAYWGQGTLVTVSSGGGGSGGGGSGGGGSQTVVTQEPSLTVSPGGTVTLTCRSSTGAVTTSNYANWVQQKPGQAPRGLIGGTNKRAPGTPARFSGSLLGGKAALTLSGVQPEDEAEYYCALWYSNLWVFGGGTKLTVLSGGGGSQVQLQQSGPDLVKPGASVKMSCKASGHTFTDCVIIWVKQRAGQGLEWIGQIYPGTGRSYYNEIFKGKATLTADKSSNTVHIQLSSLTSEDSAVYFCALSTLIHGTWFSYWGQGTLVTVSSGGGGSGGGGSGGGGSDIVLTQSPASLPVSLGQRATISCRASQSVSSSTYSYIHWYQQKPGQPPKLLITYASNLESGVPARFSGSGSGTDFTLDIHPVEEDDSSTYYCQHSWEIPFTFGSGTKLEIKHHHHHH
notes: the appendix prints the entry with HHHHHH and then *VD at its end
Turning to B3, the binding result in experiment [3] is reported as “binds”.

B4: 2G8LH×SEQ ID NO. 16 bispecific single chain antibody (bispecific antibody)
chain: DVVMTQTPLTLSVTIGQPASISCKSSQSLLYSNGKTYLNWILQRPGQSPKRLIYLVSKLDSGVPDRFTGSGSGTDFTLKISRVEAEDLGVYYCVQGTHFPLTFGAGTKLELKGGGGSGGGGSGGGGSEVQLQQSGAELVRSGASVKLSCTASGFNIKDYYLHWVKQRPEQGLEWIAWIDLENGDIKYAPKFQGKATITADTSSNTAYLQLSSLTSEDTAVYYCNPYYYGSNYDYAMDYWGQGTSVTVSSGGGGSQVVLTQSPAIMSAFPGEKVTMTCSASSSVSYMNWYQQKSGTSPKRWIYDSSKLASGVPARFSGSGSGTSYSLTISSMETEDAATYYCQQWSRNPPTFGGGTKLQITGGGGSGGGGSGGGGSQVQLQQSGAELARPGASVKMSCKASGYTFTRSTMHWVKQRPGQGLEWIGYINPSSAYTNYNQKFKDKATLTADKSSSTAYMQLSSLTSEDSAVYYCASPQVHYDYNGFPYWGQGTLVTVSAHHHHHH
As for B4, the binding result in experiment [1] and in experiment [2] was “binds” in each case.

B5: 2G8LH×SEQ ID NO. 12 bispecific single chain antibody (bispecific antibody)
chain: DVVMTQTPLTLSVTIGQPASISCKSSQSLLYSNGKTYLNWILQRPGQSPKRLIYLVSKLDSGVPDRFTGSGSGTDFTLKISRVEAEDLGVYYCVQGTHFPLTFGAGTKLELKGGGGSGGGGSGGGGSEVQLQQSGAELVRSGASVKLSCTASGFNIKDYYLHWVKQRPEQGLEWIAWIDLENGDIKYAPKFQGKATITADTSSNTAYLQLSSLTSEDTAVYYCNPYYYGSNYDYAMDYWGQGTSVTVSSGGGGSQAVVTQESALTTSPGETVTLTCRSSTGAVTTSNYANWVQEKPDHLFTGLIGGTNKRAPGVPARFSGSLIGDKAALTITGAQTEDEAIYFCALWYSNLWVFGGGTKLTVLGGGGSGGGGSGGGGSEVKLLESGGGLVQPKGSLKLSCAASGFTFNTYAMNWVRQAPGKGLEWVARIRSKYNNYATYYADSVKDRFTISRDDSQSILYLQMNNLKTEDTAMYYCVRHGNFGNSYVSWFAYWGQGTLVTVSAHHHHHH
Consider B5, for which the binding result in experiment [1] and in experiment [2] was “binds” each time.

B6: SEQ ID NO. 194 × EGFR LH (bispecific antibody)
chain: QTVVTQEPSLTVSPGGTVTLTCRSSTGAVTTSNYANWVQQKPGQAPRGLIGGTNKRAPGTPARFSGSLLGGKAALTLSGVQPEDEAEYYCALWYSNLWVFGGGTKLTVLGGGGSGGGGSGGGGSEVQLVESGGGLVQPGGSLKLSCAASGFTFNTYAMNWVRQAPGKGLEWVARIRSKYNNYATYYADSVKDRFTISRDDSKNTAYLQMNNLKTEDTAVYYCVRHGNFGNSYVSWFAYWGQGTLVTVSSSGGGGSDIVLTQSPASLPVSLGQRATISCRASQSVSSSTYSYIHWYQQKPGQPPKLLITYASNLESGVPARFSGSGSGTDFTLDIHPVEEDDSSTYYCQHSWEIPFTFGSGTKLEIKGGGGSGGGGSGGGGSQVQLQQSGPDLVKPGASVKMSCKASGHTFTDCVIIWVKQRAGQGLEWIGQIYPGTGRSYYNEIFKGKATLTADKSSNTVHIQLSSLTSEDSAVYFCALSTLIHGTWFSYWGQGTLVTVSSHHHHHH
notes: 186 as EGFR LH; the appendix heads it EGFR HL; ends with HHHHHH and *VD in the appendix
As for B6, in experiment [3], the binding result is “binds”.

B7: SEQ ID NO. 194 × EGFR HL (bispecific antibody)
chain: QTVVTQEPSLTVSPGGTVTLTCRSSTGAVTTSNYANWVQQKPGQAPRGLIGGTNKRAPGTPARFSGSLLGGKAALTLSGVQPEDEAEYYCALWYSNLWVFGGGTKLTVLGGGGSGGGGSGGGGSEVQLVESGGGLVQPGGSLKLSCAASGFTFNTYAMNWVRQAPGKGLEWVARIRSKYNNYATYYADSVKDRFTISRDDSKNTAYLQMNNLKTEDTAVYYCVRHGNFGNSYVSWFAYWGQGTLVTVSSSGGGGSQVQLQQSGPDLVKPGASVKMSCKASGHTFTDCVIIWVKQRAGQGLEWIGQIYPGTGRSYYNEIFKGKATLTADKSSNTVHIQLSSLTSEDSAVYFCALSTLIHGTWFSYWGQGTLVTVSSGGGGSGGGGSGGGGSDIVLTQSPASLPVSLGQRATISCRASQSVSSSTYSYIHWYQQKPGQPPKLLITYASNLESGVPARFSGSGSGTDFTLDIHPVEEDDSSTYYCQHSWEIPFTFGSGTKLEIKHHHHHH
notes: as for B3
For the molecule B7, the binding result in experiment [3] is “binds”.
